# Several values for one entry are separate records, joined by “and”; a condition that tells them apart may be missing. Identical values can stand only once.
# What was measured:
# [1] = target: LY6A (Ly6a, C57BL/6J mouse) (mouse (C57BL/6J)) (UniProt P05533); test: AAV library bound to Ly6a-transfected HEK293T cells, NGS
# [2] = target: LY6C1 (Ly6c1, C57BL/6J mouse, splice variant 1) (mouse (C57BL/6J)) (UniProt P0CW02); test: AAV library bound to Ly6c1-transfected HEK293T cells, NGS
# UniProt P0CW02, sequence (P0CW02 27-109 limits assumed, change not shown): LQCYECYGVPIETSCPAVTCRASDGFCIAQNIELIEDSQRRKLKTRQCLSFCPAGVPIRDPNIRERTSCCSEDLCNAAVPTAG
# UniProt P05533, sequence (P05533 27-112 limits assumed): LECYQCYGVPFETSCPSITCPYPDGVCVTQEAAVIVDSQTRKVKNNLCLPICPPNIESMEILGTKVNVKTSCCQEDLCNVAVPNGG
Substance,fold enrichment (log2) [1],fold enrichment (log2) [2]
AAV9 K449R 7-mer variant AADRPFL,2.73 log2,-3.32 log2
AAV9 K449R 7-mer variant AGSFKDI,3.96 log2,-2.87 log2
AAV9 K449R 7-mer variant AISAPFK,2.56 log2,-0.06 log2
AAV9 K449R 7-mer variant AKAGYAS,-0.03 log2,4.54 log2
AAV9 K449R 7-mer variant ALAKPFI,1.91 log2,-0.19 log2
AAV9 K449R 7-mer variant ALHVPFK,4.11 log2,0.26 log2
AAV9 K449R 7-mer variant ASSKPFL,3.9 log2,1.19 log2
AAV9 K449R 7-mer variant DKAWGST,0.19 log2,3.56 log2
AAV9 K449R 7-mer variant DKQKPFL,4.6 log2,0.94 log2
AAV9 K449R 7-mer variant DKYNFSS,-0.13 log2,3.43 log2
AAV9 K449R 7-mer variant DMERPFK,4.51 log2,-3.91 log2
AAV9 K449R 7-mer variant DRIHGYS,-0.11 log2,4.34 log2
AAV9 K449R 7-mer variant DRKGYSA,-0.39 log2,2.77 log2
AAV9 K449R 7-mer variant DSQRPFI,2.63 log2,-3.55 log2
AAV9 K449R 7-mer variant DTKWSSS,0.53 log2,4.11 log2
AAV9 K449R 7-mer variant DVKYGSS,-0.36 log2,4.92 log2
AAV9 K449R 7-mer variant EDHRYSS,0.17 log2,3.4 log2
AAV9 K449R 7-mer variant EIRGYSS,0.75 log2,4.92 log2
AAV9 K449R 7-mer variant EKKQYSS,0.89 log2,4.45 log2
AAV9 K449R 7-mer variant ESRGFSS,-0.58 log2,4.7 log2
AAV9 K449R 7-mer variant ESSKPFR,3.15 log2,1.28 log2
AAV9 K449R 7-mer variant ESTRPFK,2.87 log2,0.28 log2
AAV9 K449R 7-mer variant FLPGYSS,-2.29 log2,2.54 log2

Substance,fold enrichment (log2) [1],fold enrichment (log2) [2]
AAV9 K449R 7-mer variant FRIGGSS,1.34 log2,4.89 log2
AAV9 K449R 7-mer variant GDNRPFK,2.65 log2,0.57 log2
AAV9 K449R 7-mer variant GESRPFI,3.32 log2,-2.08 log2
AAV9 K449R 7-mer variant GGRGLSS,2 log2,4.9 log2
AAV9 K449R 7-mer variant GKHFSST,2.64 log2,4.25 log2
AAV9 K449R 7-mer variant GKTGYST,-3.32 log2,2.93 log2
AAV9 K449R 7-mer variant GKTHGYS,1.65 log2,3.87 log2
AAV9 K449R 7-mer variant GNENFSS,-1.43 log2,3.45 log2
AAV9 K449R 7-mer variant GSERPFL,3.78 log2,-4.2 log2
AAV9 K449R 7-mer variant GSYGYSS,-3.32 log2,2.48 log2
AAV9 K449R 7-mer variant GVDRPFK,3.84 log2,-1.13 log2
AAV9 K449R 7-mer variant HEHRYST,-4.06 log2,3.06 log2
AAV9 K449R 7-mer variant HKTHYSS,0.86 log2,3.24 log2
AAV9 K449R 7-mer variant HNVFKNP,2.09 log2,0.33 log2
AAV9 K449R 7-mer variant HTQGYST,-3.32 log2,2.26 log2
AAV9 K449R 7-mer variant IATGYSQ,-3.74 log2,2.18 log2
AAV9 K449R 7-mer variant IDRGYSV,-1.04 log2,5.3 log2
AAV9 K449R 7-mer variant IRQGYSS,-1.28 log2,2.61 log2
AAV9 K449R 7-mer variant IRVGYST,-3.55 log2,3.46 log2
AAV9 K449R 7-mer variant IVRGLSS,-1.14 log2,3.24 log2
AAV9 K449R 7-mer variant KDKFKDI,3.38 log2,-2.08 log2
AAV9 K449R 7-mer variant KQYQGST,1.54 log2,4.88 log2
AAV9 K449R 7-mer variant KTQFKDV,2.09 log2,-3.55 log2

Substance,fold enrichment (log2) [1],fold enrichment (log2) [2]
AAV9 K449R 7-mer variant LAHTYSS,0.04 log2,3.97 log2
AAV9 K449R 7-mer variant LKKGYST,1.72 log2,2.96 log2
AAV9 K449R 7-mer variant LKTGMSS,-0.66 log2,2.74 log2
AAV9 K449R 7-mer variant LKYGTST,1.24 log2,4.88 log2
AAV9 K449R 7-mer variant LLRGASS,-0.33 log2,2.96 log2
AAV9 K449R 7-mer variant LNRGSST,1.72 log2,4.15 log2
AAV9 K449R 7-mer variant LRGGYST,-3.32 log2,2.88 log2
AAV9 K449R 7-mer variant LRMGASS,0.91 log2,4.17 log2
AAV9 K449R 7-mer variant LRTAYSS,1.13 log2,5.12 log2
AAV9 K449R 7-mer variant LSKGLSS,-3.55 log2,3.55 log2
AAV9 K449R 7-mer variant LSMGYST,-3.91 log2,2.97 log2
AAV9 K449R 7-mer variant LTKWEST,0.82 log2,3.91 log2
AAV9 K449R 7-mer variant LWAKGST,1.42 log2,3.9 log2
AAV9 K449R 7-mer variant LYAGRSS,1.03 log2,4.13 log2
AAV9 K449R 7-mer variant MERYGSS,-2.28 log2,3.83 log2
AAV9 K449R 7-mer variant MMAKPFL,4.53 log2,-0.49 log2
AAV9 K449R 7-mer variant MNIGYSA,-1.48 log2,2.4 log2
AAV9 K449R 7-mer variant MRTFGSA,1 log2,3.97 log2
AAV9 K449R 7-mer variant MRTLMSS,-0.52 log2,3.85 log2
AAV9 K449R 7-mer variant MVRNYST,-0.94 log2,3.25 log2
AAV9 K449R 7-mer variant NDQRPFL,3.27 log2,-4.33 log2
AAV9 K449R 7-mer variant NERRPFL,4.31 log2,0.77 log2
AAV9 K449R 7-mer variant NGYKGST,1.24 log2,4.98 log2

Substance,fold enrichment (log2) [1],fold enrichment (log2) [2]
AAV9 K449R 7-mer variant NIIRPFA,3.23 log2,0.4 log2
AAV9 K449R 7-mer variant NKVGYST,-3.74 log2,3.13 log2
AAV9 K449R 7-mer variant NLKRPFA,2.8 log2,0.85 log2
AAV9 K449R 7-mer variant NMERPFR,2.96 log2,0.95 log2
AAV9 K449R 7-mer variant NRGGYAS,-0.18 log2,4.53 log2
AAV9 K449R 7-mer variant NSPGWSS,-0.93 log2,3.08 log2
AAV9 K449R 7-mer variant NYTGYSS,,4.83 log2 and 4.44 log2
AAV9 K449R 7-mer variant PPSFKNV,3.69 log2,-4.33 log2
AAV9 K449R 7-mer variant PYQGASS,-0.53 log2,5.24 log2
AAV9 K449R 7-mer variant QDKGYSS,-3.55 log2,2.61 log2
AAV9 K449R 7-mer variant QHFGQSS,-0.37 log2,4.68 log2
AAV9 K449R 7-mer variant QNARPFV,1.52 log2,1.42 log2
AAV9 K449R 7-mer variant QSAGYST,-1.58 log2,2.55 log2
AAV9 K449R 7-mer variant QTLFKNI,3.07 log2,-0.72 log2
AAV9 K449R 7-mer variant RATGYSS,2.49 log2,4.75 log2
AAV9 K449R 7-mer variant RIDNPFK,4.48 log2,-1.89 log2
AAV9 K449R 7-mer variant RLSFKDV,2.39 log2,-1.62 log2
AAV9 K449R 7-mer variant RSDFKDI,3.45 log2,-2.44 log2
AAV9 K449R 7-mer variant SEGRPFI,1.85 log2,-3.55 log2
AAV9 K449R 7-mer variant SHTKPFA,4.79 log2,0.97 log2
AAV9 K449R 7-mer variant SIARPFV,3.79 log2,-3.55 log2
